{
  "source": "the RNAGym collection of RNA variant scans (doi:10.1093/nar/gkz1192)",
  "parents": {"B1": {"name": "CPEB3 Ribozyme (parent)", "chain": "UAACAGGGGGCCACAGCAGAAGCGUUCACGUCGCAGCCCCUGUCAGAUUCUGGUGAAUCUGCGAAUUCUGCUGUAUAUCUC"}},
  "data": [
    {"variants_of": "B1", "assay": "self-cleavage, relative activity (ratio to wild type); higher = more cleavage; in vitro, sequencing", "outline": "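Relative activity was defined as the cleaved/total read fraction for a variant divided by the same fraction for the unmutated ribozyme. CPEB3 self-cleaving ribozyme libraries were made by rounds of error-prone PCR, barcoded, and transcribed in vitro with T7 RNA polymerase for 5 hours at 37°C, and cleavage ran through transcription plus a 15 min DNase I step before EDTA. Illumina sequencing of template-switched reverse transcripts gave the reads, and DNA sequencing mapped the barcodes. Averages come from three batches, using variants with at least 5 reads.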", "values": [
      {"variant": "U41C G46C", "self-cleavage": 0.42},
      {"variant": "U41C G46U", "self-cleavage": 0.34},
      {"variant": "U41C G70A", "self-cleavage": 0.62},
      {"variant": "U41C G70U", "self-cleavage": 0.5},
      {"variant": "U41C U60G", "self-cleavage": 0.42},
      {"variant": "U41C U60C", "self-cleavage": 0.55},
      {"variant": "U41C U60A", "self-cleavage": 0.68},
      {"variant": "U41C U54G", "self-cleavage": 0.88},
      {"variant": "U41C U54C", "self-cleavage": 1.03},
      {"variant": "U41C U54A", "self-cleavage": 1.11},
      {"variant": "U41G A65G", "self-cleavage": 0.35},
      {"variant": "U41C A64C", "self-cleavage": 0.46},
      {"variant": "U41C A64G", "self-cleavage": 0.77},
      {"variant": "U41C A64U", "self-cleavage": 0.4},
      {"variant": "U41A U43C", "self-cleavage": 0.27},
      {"variant": "U41A U43A", "self-cleavage": 0.24},
      {"variant": "U41A U43G", "self-cleavage": 0.4},
      {"variant": "U41A U72C", "self-cleavage": 0.28},
      {"variant": "U41A U72G", "self-cleavage": 0.21},
      {"variant": "U41A U72A", "self-cleavage": 0.23},
      {"variant": "U41A U76G", "self-cleavage": 0.22},
      {"variant": "U41A U76A", "self-cleavage": 0.16},
      {"variant": "U41A U76C", "self-cleavage": 0.27},
      {"variant": "U41C A65G", "self-cleavage": 0.53},
      {"variant": "U41C A65C", "self-cleavage": 0.4},
      {"variant": "U41C A65U", "self-cleavage": 0.48},
      {"variant": "U41A G73U", "self-cleavage": 0.42},
      {"variant": "U41C U78A", "self-cleavage": 1.13},
      {"variant": "U41C U78G", "self-cleavage": 1.23},
      {"variant": "U41C U78C", "self-cleavage": 1.06},
      {"variant": "U41C U51G", "self-cleavage": 0.81},
      {"variant": "U41C U51A", "self-cleavage": 1.06},
      {"variant": "U41C U51C", "self-cleavage": 1.08},
      {"variant": "U41A U51C", "self-cleavage": 0.31},
      {"variant": "U41A U51A", "self-cleavage": 0.36},
      {"variant": "U41A U51G", "self-cleavage": 0.42},
      {"variant": "U41C A56U", "self-cleavage": 0.75},
      {"variant": "U41C A56C", "self-cleavage": 0.64},
      {"variant": "U41C A56G", "self-cleavage": 0.94},
      {"variant": "U41G A57C", "self-cleavage": 0.11},
      {"variant": "U41G A57G", "self-cleavage": 0.23},
      {"variant": "U41A U78G", "self-cleavage": 0.13},
      {"variant": "U41A U78A", "self-cleavage": 0.25},
      {"variant": "U41A U78C", "self-cleavage": 0.26},
      {"variant": "U41C C81U", "self-cleavage": 1.19},
      {"variant": "U41C C81A", "self-cleavage": 1.19},
      {"variant": "U41C A45U", "self-cleavage": 0.68},
      {"variant": "U41C A45G", "self-cleavage": 0.92},
      {"variant": "U41C A45C", "self-cleavage": 0.53},
      {"variant": "U41C C79A", "self-cleavage": 1.21},
      {"variant": "U41C C79U", "self-cleavage": 1.26},
      {"variant": "U41A U49C", "self-cleavage": 0.23},
      {"variant": "U41A U49A", "self-cleavage": 0.23},
      {"variant": "U41A U48G", "self-cleavage": 0.37},
      {"variant": "U41A U48C", "self-cleavage": 0.23},
      {"variant": "U41A U48A", "self-cleavage": 0.22},
      {"variant": "U41C U74G", "self-cleavage": 1.21},
      {"variant": "U41C U74C", "self-cleavage": 1.23},
      {"variant": "U41C U74A", "self-cleavage": 1.22},
      {"variant": "U41C C44A", "self-cleavage": 0.39},
      {"variant": "U41C C44U", "self-cleavage": 0.53},
      {"variant": "U41C U43A", "self-cleavage": 0.72},
      {"variant": "U41C U43C", "self-cleavage": 0.46},
      {"variant": "U41A U67C", "self-cleavage": 0.21},
      {"variant": "U41A U67A", "self-cleavage": 0.36},
      {"variant": "U41A U67G", "self-cleavage": 0.18},
      {"variant": "U41C U76A", "self-cleavage": 1.17},
      {"variant": "U41C U76G", "self-cleavage": 1.05},
      {"variant": "U41C U76C", "self-cleavage": 1.05},
      {"variant": "U41G A45U", "self-cleavage": 0.17},
      {"variant": "U41G A45G", "self-cleavage": 0.25},
      {"variant": "U41C A47G", "self-cleavage": 1},
      {"variant": "U41C A47U", "self-cleavage": 0.61},
      {"variant": "U41C A47C", "self-cleavage": 0.46},
      {"variant": "U41C C68U", "self-cleavage": 1.09},
      {"variant": "U41C C68G", "self-cleavage": 0.39},
      {"variant": "U41G A77U", "self-cleavage": 0.36},
      {"variant": "U41G A77G", "self-cleavage": 0.2},
      {"variant": "U41C G55A", "self-cleavage": 0.93},
      {"variant": "U41C G55U", "self-cleavage": 1.17},
      {"variant": "U41C A57C", "self-cleavage": 0.58},
      {"variant": "U41C A57U", "self-cleavage": 0.78},
      {"variant": "U41C A57G", "self-cleavage": 1},
      {"variant": "U41C U67G", "self-cleavage": 0.3},
      {"variant": "U41C U67A", "self-cleavage": 0.53},
      {"variant": "U41C U67C", "self-cleavage": 0.33},
      {"variant": "U41G", "self-cleavage": 0.29},
      {"variant": "U41C", "self-cleavage": 1.09},
      {"variant": "U41G A56G", "self-cleavage": 0.22},
      {"variant": "U41G A56U", "self-cleavage": 0.25},
      {"variant": "U41C U69A", "self-cleavage": 0.67},
      {"variant": "U41C U69C", "self-cleavage": 0.57},
      {"variant": "U41C U69G", "self-cleavage": 0.79},
      {"variant": "U41G A75G", "self-cleavage": 0.18},
      {"variant": "U41C G61C", "self-cleavage": 0.21},
      {"variant": "U41C G61A", "self-cleavage": 0.34},
      {"variant": "U41C G61U", "self-cleavage": 0.62},
      {"variant": "U41C G63A", "self-cleavage": 0.89},
      {"variant": "U41C G63C", "self-cleavage": 1.06},
      {"variant": "U41C G63U", "self-cleavage": 1.13},
      {"variant": "U41C C59U", "self-cleavage": 0.89},
      {"variant": "U41C C59A", "self-cleavage": 0.27},
      {"variant": "U41C U66C", "self-cleavage": 0.49},
      {"variant": "U41C U66A", "self-cleavage": 0.62},
      {"variant": "U41C U66G", "self-cleavage": 0.58},
      {"variant": "U41C U49A", "self-cleavage": 0.89},
      {"variant": "U41C U49C", "self-cleavage": 0.5},
      {"variant": "U41C G52U", "self-cleavage": 1.03},
      {"variant": "U41C G52C", "self-cleavage": 1.12},
      {"variant": "U41C G52A", "self-cleavage": 1.18},
      {"variant": "U41A U69C", "self-cleavage": 0.24},
      {"variant": "U41A U69A", "self-cleavage": 0.14},
      {"variant": "U41A U69G", "self-cleavage": 0.33},
      {"variant": "U41C A77U", "self-cleavage": 1.17},
      {"variant": "U41C A77C", "self-cleavage": 1.09},
      {"variant": "U41C A77G", "self-cleavage": 1.17},
      {"variant": "U41C G53C", "self-cleavage": 1.13},
      {"variant": "U41C G53A", "self-cleavage": 1.13},
      {"variant": "U41C U58G", "self-cleavage": 0.41},
      {"variant": "U41C U58C", "self-cleavage": 0.58},
      {"variant": "U41C U58A", "self-cleavage": 0.47},
      {"variant": "U41C U80C", "self-cleavage": 1.04},
      {"variant": "U41C U80A", "self-cleavage": 1.15},
      {"variant": "U41C U80G", "self-cleavage": 1.29},
      {"variant": "U41C G73A", "self-cleavage": 1.23},
      {"variant": "U41C G73U", "self-cleavage": 1.28},
      {"variant": "U41C G73C", "self-cleavage": 1.25},
      {"variant": "U41A U74A", "self-cleavage": 0.29},
      {"variant": "U41A U74C", "self-cleavage": 0.4},
      {"variant": "U41A U60A", "self-cleavage": 0.25},
      {"variant": "U41A U60G", "self-cleavage": 0.23},
      {"variant": "U41A U60C", "self-cleavage": 0.26},
      {"variant": "U41C C50A", "self-cleavage": 0.94},
      {"variant": "U41C C50U", "self-cleavage": 1.08},
      {"variant": "U41C C50G", "self-cleavage": 0.96},
      {"variant": "U41C U48C", "self-cleavage": 0.71},
      {"variant": "U41C U48A", "self-cleavage": 0.6},
      {"variant": "U41C U48G", "self-cleavage": 0.55},
      {"variant": "U41A U80G", "self-cleavage": 0.41},
      {"variant": "U41A U80C", "self-cleavage": 0.32},
      {"variant": "U41A U80A", "self-cleavage": 0.28},
      {"variant": "U41G A64U", "self-cleavage": 0.14},
      {"variant": "U41G A64G", "self-cleavage": 0.26},
      {"variant": "U41C A75U", "self-cleavage": 1.18},
      {"variant": "U41C A75C", "self-cleavage": 1.15},
      {"variant": "U41C A75G", "self-cleavage": 1.09},
      {"variant": "U41A U58A", "self-cleavage": 0.22},
      {"variant": "U41A U58C", "self-cleavage": 0.23},
      {"variant": "U41A U58G", "self-cleavage": 0.23},
      {"variant": "U41A U66A", "self-cleavage": 0.27},
      {"variant": "U41A U66C", "self-cleavage": 0.23},
      {"variant": "U41A U66G", "self-cleavage": 0.18},
      {"variant": "U41G A47G", "self-cleavage": 0.37},
      {"variant": "U41C C62A", "self-cleavage": 0.19},
      {"variant": "U41C C62G", "self-cleavage": 0.15},
      {"variant": "U41C C62U", "self-cleavage": 0.17},
      {"variant": "U41C U72C", "self-cleavage": 1.11},
      {"variant": "U41C U72G", "self-cleavage": 0.92},
      {"variant": "U41C U72A", "self-cleavage": 0.79},
      {"variant": "U41C G42A", "self-cleavage": 0.23},
      {"variant": "U41C G42C", "self-cleavage": 0.23},
      {"variant": "U41A U54C", "self-cleavage": 0.29},
      {"variant": "U41A U54A", "self-cleavage": 0.27},
      {"variant": "U41A U54G", "self-cleavage": 0.22},
      {"variant": "U41C C71A", "self-cleavage": 0.33},
      {"variant": "U41C C71U", "self-cleavage": 0.76},
      {"variant": "U41C C71G", "self-cleavage": 0.4}
    ]}
  ]
}
